Experimental data taken from PMC4534193, “Binding of the Lactococcal Drug Dependent Transcriptional Regulator LmrR to Its Ligands and Responsive Promoter Regions” (PLoS ONE, 2015).

Key:
[1] = test system: LmrR-Strep (Lactococcus lactis); assay: MST; conditions: apparent Kd, MST: 20 mM Tris-HCl pH 8.0, 1 mM EDTA, 50 nM Cy5-DNA, 30 min incubation at 30 C, 30% LED, 40% laser power (30% laser for PlmrR), Hill fit
[2] = target: T1, LmrR-Strep (Lactococcus lactis) (UniProt A2RI36); assay: MST; conditions: MST: 20 mM Tris-HCl pH 8.0, 1 mM EDTA, 50 nM Cy5-DNA, 30 min incubation at 30 C; 30% LED, 40% laser power (30% laser for PlmrR); Hill fit
T1 sequence: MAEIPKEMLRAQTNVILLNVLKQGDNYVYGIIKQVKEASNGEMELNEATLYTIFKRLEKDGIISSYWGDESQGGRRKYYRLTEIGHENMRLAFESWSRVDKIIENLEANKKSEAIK

PlmrCD (lmrCD promoter/operator region)
Kd ([1]; 50 uM riboflavin): 195 nM
Kd ([1]; no riboflavin, Hill coefficient 1.78 +/- 0.17): 82.1 nM

PlmrCD -62bp
Kd ([1]; no riboflavin): 62 nM

PlmrR (lmrR promoter/operator region)
Kd ([1]; 50 uM riboflavin, 30% laser power): 5120 nM
Kd ([1]; no riboflavin, Hill coefficient 2.43 +/- 0.19, 30% laser power): 1400 nM

TTCTAGAGTTAAATAATGTAAACTACTTTACATTAAATTGAATTTTCAATTTCATTTTACTTCAAAATAATTTCAATAAATTTTTTGAGAAGATAATTATAACATTATTTTTTTTAGTAAACAAGCATTAATTGTTAATGCTGTTAAAGATTACAATAGTTAGTTTCATAAATGGTAAACTAACAAAAATATTGTAACGCTTTTTAAAGTTTAAGTCAACGATTTACGACGTTATTTGTATCTTCTTATGTTTTTATAAATTTAGAATTTAAAGTAAGGAATGAATCG (double strand) [PlmrCD -62bp]
Kd [2]: 62 nM

CTCCTTGTTTTAGGACATTGAGCAAAATTACATTGGTTTGGGCTCGTAACATTTCTTTTGGTATTTCTGCCATTCTTTTTCCTTTCTATCATTTTAAACAAAGTATATTATACTTCACATTACTATGTAAGTCAAGGTACTTAAACTATTTATATAATATTTTATTTTTGACGACTTTCTACTATATAAGATAAGAAAAAATCATCTCCG (double strand) [PlmrR (lmrR promoter/operator region)]
Kd [2]: 1400 nM

ACTACTTTACATTAAATTGAATTTTCAATTTCATTTTACTTCAAAATAATTTCAATAAATTTTTTGAGAAGATAATTATAACATTATTTTTTTTAGTAAACAAGCATTAATTGTTAATGCTGTTAAAGATTACAATAGTTAGTTTCATAAATGGTAAACTAACAAAAATATTGTAACGCTTTTTAAAGTTTAAGTCAACGATTTACGACGTTATTTGTATCTTCTTATGTTTTTATAAATTTAGAATTTAAAGTAAGGAATGAATCG (double strand) [PlmrCD no PadR (half of PadR motif deleted)]
binding [2]: no binding
